According to patent US9809653B2, “Anti-LAMP1 antibodies and antibody drug conjugates, and uses thereof” (SANOFI, priority 2012, dated 2017):
Numbering of substitutions follows the chain as printed.

Key:
[1] = target: T1, LAMP1 in human tumoral and non-tumoral tissues (Homo sapiens, UniProt P11279); assay: IHC on frozen-OCT / AFA human tumoral and non-tumoral tissues; conditions: CR-LRB-010P, human non-tumoral colon and skin
T1 construct: from tissue; host or cells: human tumoral and non-tumoral tissue sections and PDX tumour sections (frozen-OCT, AFA, FFPE)
T1 sequence (P11279 29-417): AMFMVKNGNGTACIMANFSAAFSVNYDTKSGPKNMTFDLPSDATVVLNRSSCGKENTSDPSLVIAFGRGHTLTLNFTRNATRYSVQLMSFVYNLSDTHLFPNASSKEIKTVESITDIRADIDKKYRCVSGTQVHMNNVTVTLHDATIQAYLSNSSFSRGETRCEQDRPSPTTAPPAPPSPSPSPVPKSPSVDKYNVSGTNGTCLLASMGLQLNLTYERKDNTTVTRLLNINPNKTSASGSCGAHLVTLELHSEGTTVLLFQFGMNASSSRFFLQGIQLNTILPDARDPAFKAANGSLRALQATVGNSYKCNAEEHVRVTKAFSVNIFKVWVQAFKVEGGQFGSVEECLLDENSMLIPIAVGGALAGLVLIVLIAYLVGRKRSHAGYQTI
Procedure: Individual hybridoma supernatants raised against tumor tissue CR-LRB-010P were screened by IHC on a macroarray slide containing frozen sections of immunizing tumor (CR-LRB-010P), human non-tumoral colon and human non-tumoral skin. Frozen-OCT (from Optimal Cutting Temperature) specimens of non-tumoral colon and skin were obtained from surgical cases (commercial sources such as Asterand, US Biomax, Strasbourg Hospital). The automated immunostaining was performed unsing Ventana Discovery and Discovery XT automated systems (Ventana Medical Systems, Inc, USA).
Frozen 10 μm cryostat sections were incubated with IgG culture supernatants as primary antibody (unknown concentration, dilution ⅓ in Phosphate Buffer Saline, PBS) for 40 min at 37° C. Culture medium was used as negative control. A postfixation step with glutaraldehyde (0.05% in NaCl 0.9% w/v) for 4 min was done. The secondary antibody Affinipure rabbit anti-mouse IgG (315-005_008, Jackson Immunosearch Laboratories, Inc. USA) was used at 4.8 μg/mL and incubated for 12 min at 37° C. Immunostaining was done with UltraMap Red chromogenic detection kit according to manufacturers recommendations for 8 min. Cryostat sections were subsequently couterstaining with hematoxylin II (790-2208, Ventana Medical Systems, Inc USA) and bluing for 4 min (760-2037). […]
Sections immunostained with mAbs were analyzed by microscope (Nikon Eclipse E400). […]

[2] = target: T2, Alascan LAMP1 transmembrane proteins (hLAMP1_ΔGYQTI mutants) (Homo sapiens, UniProt P11279, D150A); assay: Ala scan of LAMP1 transmembrane proteins, flow cytometry; type: binding; conditions: pXL6085, D150A in hLAMP1_ΔGYQTI; loss = decrease of more than 50% of the mean fluorescence
T2 construct: expressed in transfected cells; host or cells: HEK293 (293-F), transient transfection
T2 sequence (P11279 with tags, fused parts or gaps D150A): T1 sequence (P11279 29-417) with D122A, G385A, Y386A, Q387A, T388A, I389A
Source text: Individual residues identified in example 6.5 and not involved in β-strand structure have been individually replaced by an alanine residue in the LAMP1 sequence derived from hLAMP1_ΔGYQTI and encoded in plasmid pXL5626 (example 6.4). A total of 21 plasmids were engineered from pXL5626 (see Table 19) and used to assay LAMP1 expression at the cell membrane of HEK293 cells after transient transfection. Two days post transfection cells were processed, analyzed by flow cytometry (Guava® easyCyte™ 8HT) as mentioned in example 4.7, and the mean fluorescence was recorded. This fluorescence represents a semi-quantitative assessment of binding. Loss of binding is reported on Table 19 when there is a decrease of more than 50% of the mean fluorescence compared to the control protein encoded from pXL5626.

B1: MAb1: murine monoclonal anti-LAMP1 antibody, VH SEQ ID NO: 1, VL SEQ ID NO: 5 (antibody, V domains shown)
VH: QVQLQQSGAELVKPGASVKMSCKASGYIFTNYNIHWVKKSPGQGLEWIGAIYPGNGDAPYSQKFKDKATLTADKSSSTTYMQLSRLTSEDSAVYYCVRANWDVAFAYWGQGTLVSVSA
VL: DIQMTQSPPSLSASLGGKVTITCKASQDIDRYMAWYQDKPGKGPRLLIHDTSTLQPGIPSRFSGSGSGRDYSFSISNLEPEDIATYYCLQYDNLWTFGGGTKLEIK
modifications: Antibody Fragment; antibody fragment
- IHC reactivity on frozen sections [1]: showed evidence of tumor-associated reactivity
- Binding to mAb, Alascan [2]: Binding loss
